Test results taken from patent EP4755372A1, “POLYMERIC MICELLE […] POLYMER CHAIN OF SELF-A[…]” (INSTITUTE OF SCIENCE TOKYO, priority 2023, dated 2025).

Key:
[1] = Evaluation of SMDC formation: DA from SEC-MALS in PBS and chloroform; type: physicochemical; conditions: DA = MwPBS/MwCHCl3; 5 mg/mL, 40°C
Procedure: The foldability in water of BZAm-PEGAn-CEAk(DOTA)j obtained by the procedure described above was evaluated by comparing the absolute weight-average molecular weight Mw calculated from size exclusion chromatography in aqueous solution (PBS) and in an organic solvent (chloroform or DMF) and a system utilizing a multi-angle light scattering detector (SEC-MALS). Data obtained from SEC-MALS were analyzed using a Zimm plot, with dn/dc being the value calculated by measuring the refractive index of 4 different samples with different concentrations in each solvent (4, 3, 2 and 1 mg/mL). DA was calculated by the following formula. DA = MwPBS/MwCHCl3
• Apparatus: JASCO Extrema HPLC system (LC-Net II/ADC, Co-4060, AS-4050, PU-4180/JASCO Corp. • Detector: UV-4070/JASCO Corp., RI-4030/JASCO Corp., DAWN 8 MALS detector/Wyatt Technology Corporation • Column: OHpak SB-804HQ column/Showa Denko K.K. • (column size: 8 mm × 300 mm, pore size: 20 nm, particle size: 10 µm, exclusion limit: 1 × 10^6 g/mol) • OHpak SB-806 MHQ column/Showa Denko K.K. • (column size: 8 mm × 300 mm, pore size: 1.5 µm, particle size: 13 µm, exclusion limit: 2 × 10^7 g/mol) • OHpak SB-G 6B Guard column/Showa Denko K.K. • Mobile phase: 137 mM NaCl, 2.7 mM KCl, 11.9 mM phosphate buffer (PBS), pH 7.4 Temperature: 40°C • Flow rate: 1 mL/min • Sample concentration : 5 mg/mL • Results: Table 21
• Apparatus: TOSOH HLC-8220 GPC system/Tosoh Corp. • Detector: DAWN HELEOS II MALS detector/Wyatt • Column: LF-804 column/Showa Denko K.K. • (column size: 8 mm × 300 mm, pore size: 300 nm, particle size: 6 µm, exclusion limit: 2 × 10^6 g/mol) • LF-G guard column/Showa Denko K.K. • Mobile phase: chloroform • Temperature: 40°C • Flow rate: 1 mL/min • Sample concentration : 5 mg/mL • Results: Table 21

[2] = Relaxivity measurement (r1, r2), 0.47T NMR; type: physicochemical; conditions: compared with Gd-DOTA, 37°C
Procedure: Different polymer samples (Gd conc. 1 mM, 0.5 mM, 0.25 mM and 0.125 mM) were prepared, and the longitudinal relaxation time T1 and transverse relaxation time T2 were measured for each concentration. Using the obtained results, a plot of Gd concentration with respect to obtained relaxation time was drawn, and the longitudinal relaxivity r1 and transverse relaxivity r2 were derived from the slope of the fitted curve, based on the following formula. Here, (1/Ti)obs represents the measured relaxation time, and (1/Ti)d represents the relaxation time of the solvent. (1/Ti)obs = (1/Ti)d + ri [Gd]. i = 1, 2 [formula]
• Apparatus: Bruker minispec 0.47T NMR/Bruker • Solvent: Ultrapure water or BSA (10 mg/mL)-dissolved ultrapure water • Measuring conditions: Temperature: 37°C, receiver gain = 80-82, recycle delay = 2. • Results: Table 22

[3] = SAXS measurement (Guinier plot particle size, Kratky plot); type: physicochemical; conditions: SAXS in aqueous solution, 10 mg/ml
Procedure: (§1) For the previously obtained BZAm-PEGAn-CEAk(DOTA)j and PEGAn-CEAk(DOTA)j, the particle size was confirmed by Guinier plot in small angle x-ray scattering (SAXS), and SMDC formation was confirmed by Kratky plot. The particle size was also measured by transmission electron microscopy (TEM) and dynamic light scattering. The surface potential was also measured.
• Apparatus: nano-viewer SAXS system/Rigaku Corp. • Solvent: Ultrapure water or DMF • Sample concentration : 10 mg/ml • Measuring temperature: room temperature • Results: Fig. 12 and Fig. 13

[4] = Pharmacokinetics test in CT26 tumor-bearing mice, Gd concentration by ICP-MS; type: in vivo; conditions: caudal vein, Gd conc. 5 mg/kg; for blood retentivity and blood clearance: CT26 tumor-bearing mice; for tumor accumulation (Gd concentration): 24-48 hours after administration for SMDC-Gd4; for accumulation in different organs: liver, spleen, kidneys, brain, muscle, pancreas
Procedure: A tumor-bearing model was prepared by subcutaneously transplanting CT26 mouse colorectal cancer cells into mice (Balb/c, 6-week-old, female, SLC), and the model was used for pharmacokinetics testing. A cell suspension that had been subcultured (5% CO2, 37°C) using DMEM medium (containing 10% FBS and 1% penicillin streptomycin) was subcutaneously injected into the mouse dorsal region (1 × 10^6 cells/mouse, DMEM). At 10 days after administration, the tumor size was randomized and each sample was administered to the mouse through the caudal vein (Gd conc. 5 mg/kg, n = 6). After administration, blood was collected and the organs (tumors, liver, spleen, kidneys, pancreases, skin, muscles and brains) were dissected after specified time periods (1, 4, 8, 24 and 72 hours). After sampling, the plasma was collected by centrifugal separation of the blood to prepare a sample. The collected organs were pretreated (heated at 70% nitric acid, heating at 90°C for ≥1 hour, followed by dilution with ultrapure water), and the Gd concentration was measured using ICP-MS.
• Apparatus: Agilent 7700x ICP-MS/Agilent • Pretreatment apparatus: EYELA MG-2300/Tokyo Rikakikai Co., Ltd. • Standard solution: Gadolinium standard solution (Gd1000) for ICP analysis/FujiFilm-Wako • Results: Figs. 18 to 25

[5] = test system: CT26 mouse colorectal cancer cells; experiment: MRI R1 mapping in CT26 tumor-bearing mice; type: in vivo; conditions: for tumor/muscle ratio (T/M ratio) of the relaxation rate: Gd conc. 0.1 mmol/kg
Procedure: CT26 mouse colorectal cancer cells were subcutaneously grafted into mice (BALB/c nu/nu mice, 5-week-old, female, SLC) to create a tumor-bearing model which was used for MRI. A CT26 cell suspension that had been subcultured (5% CO2, 37°C) using DMEM medium (containing 10% FBS and 1% penicillin streptomycin) was subcutaneously injected into the mouse dorsal region (1 × 10^6 cells/mouse, Hank's balanced salt solution). At 1 week after administration, the tumor size was randomized, and then each sample was administered to the mouse through the caudal vein (Gd conc. 0.1, 0.05, 0.03 and 0.01 mmol/kg). MRI imaging (R1 mapping, T1-weighted image) was carried out under isoflurane anesthesia.
• Apparatus: Horizontal 1.0 T Bruker ICON MRI system/Bruker • Pulse sequence: Rapid acquisition with relaxation enhancement (RARE)-based inversion recovery sequence • Measuring conditions: Echo time (TE) = 10 ms; [formula] Repetition time (TR) = 10,000 ms; [formula] [formula] RARE Factor = 4; [formula] Field of view (FOV) = 28.0 × 16.0 mm^2; [formula] Slice thickness = 2.0 mm; [formula] Pixel count = 70 × 40; [formula] Resolving power (in-planeresolution) = 0.4 × 0.4 mm^2 [formula] Number of excitations = 1; [formula] • Fat suppression mode: OFF; • FOV saturation: ON • Measuring points: Before administration and 20, 40, 60 minutes and 24 hours after administration • Results: Figs. 38 to 42

[6] = test system: CT26 mouse colorectal cancer cells; experiment: Gd-NCT experiment (neutron irradiation of CT26 tumor-bearing mice); type: in vivo; conditions: 3 administrations, Gd conc. 0.1 mmol/kg, neutron irradiation 10 minutes
Procedure: A tumor-bearing model prepared by subcutaneously grafting CT26 mouse colorectal cancer cells into mice (Balb/c, 6-week-old, female, SLC) was used in an experiment for Gd-NCT. A CT26 cell suspension was injected into the mouse right femoral region (2 × 10^5 cells/mouse, DMEM). After approximately 2 weeks, each sample was administered 3 times through the caudal vein of the mouse (after 0, 24 and 48 hours, Gd conc. 0.1 mmol/kg, n = 5). A PBS-administered group was used as a comparative control. At 72 hours after the first administration, the holder in which the mouse had been placed was set on a 5 mm-thick thermoplastic sheet containing 40 wt% ^6LiF (96% ^6Li) for shielding of thermal neutrons and irradiated with neutron rays for 10 minutes only at the tumor site of the right femoral region (5 MW, Kyoto University Research Reactor, fluence: 2.87 × 10^12 to 3.29 × 10^12 thermal neutron/cm^2, 5.10 × 10^11 to 5.86 × 10^11 epithermal neutron/cm^2). The antitumor effect was confirmed by time-dependent change in tumor volume, and toxicity was confirmed by change in mouse body weight.

[7] = Pharmacokinetics test for Gd-NCT (single or 3 administrations), Gd by ICP-MS; type: in vivo, mice
Procedure: A tumor-bearing model was prepared by subcutaneous grafting of CT26 mouse colorectal cancer cells into mice (Balb/c, 6-week-old, female, SLC) by the same procedure as for the SMDC-Gd pharmacokinetics test, and a pharmacokinetics test was conducted as an experiment for Gd-NCT. In this case, however, each sample was administered once or 3 times through the caudal vein of the mouse (0, 24 and 48 hours afterwards, Gd conc. 0.1 mmol/kg, n = 5), with blood collection and organ dissection and collection (tumors, liver and kidneys) 24 hours after the final administration. Each organ was pretreated by the same procedure as described above, and the Gd concentration was also measured in the same manner using ICP-MS. • Apparatus: Agilent 7700x ICP-MS/Agilent • Pretreatment apparatus: EYELA MG-2300/Tokyo Rikakikai Co., Ltd. • Standard solution: Gadolinium standard solution (Gd1000) for ICP analysis/FujiFilm-Wako • Results: Fig. 46 and Fig. 47

[8] = TEM particle size measurement; type: physicochemical; conditions: by folding; method not given
Procedure: as §1
• Apparatus: JEM-2100F TEM system/JEOL Corp. • Solvent: Ultrapure water • Pretreatment: Stained on formvar/carbon supported-copper grids • Measuring temperature: room temperature • Results: Fig. 14 and Fig. 15

[9] = Zeta potential (surface potential) measurement; type: physicochemical; conditions: for surface charge (zeta potentials): ultrapure water
Procedure: as §1
• Apparatus: Malvern Zetasizer Nano ZSP/Malvem Panalytical • Solvent: Ultrapure water • Sample concentration : 10 mg/ml • Measuring temperature: room temperature • Results: Fig. 16 and Fig. 17

[10] = 3 doses given every 24 hours, after the final 24 hours

| Compound | DA [1] | longitudinal relaxivity (r1) [2] | Kratky plot (particle formation) [3] | blood retentivity and blood clearance [4] | tumor accumulation (Gd concentration) [4] | tumor/muscle ratio (T/M ratio) of the relaxation rate ([5]; 1 hour after administration) | antitumor effect by Gd-NCT (tumor volume) [6] | accumulation in different organs [4] | surface charge (zeta potentials) [9] | further results |
| --- | --- | --- | --- | --- | --- | --- | --- | --- | --- | --- |
| BZA100-PEGA80-CEA20(DOTA)9 [TP5] | 0.88 | higher | form particles in aqueous solution | – | – | – | – | – | – | – |
| O=C([O-])CN1CCN(CC(=O)[O-])CCN(CC(=O)O)CCN(CC(=O)[O-])CC1.[Gd+3] [Gd-DOTA, gadoteric acid] | – | – | – | rapidly excreted from the blood | low | 0.77 | failed to exhibit sufficient antitumor activity | – | – | – |
| PEGA104-CEA30(DOTA)12 [PEGA-Gd12] | – | higher | – | – | – | – | – | – | – | – |
| BZA100-PEGA90-CEA10(DOTA)4 [TP4] | 0.91 | higher | form particles in aqueous solution | equivalent | at least twice that of SMDC-Gd17 and PEGA-Gd4 | 1.17 | suppressed tumor growth | equivalent to typical nanomedicine | negative | intratumoral Gd concentration [7, 10]: 91.2 ppm; intratumoral concentration in terms of ^157Gd groups [7, 10]: 14.3 ppm; intratumoral concentration in terms of ^157Gd groups ([7]; single dose, 24 hours after injection): 6.4 ppm; intratumoral Gd concentration ([7]; single dose, 24 hours after injection, Gd conc. 0.1 mmol/kg): 41.2 ppm; contrast effect in tumor tissue ([5]; longitudinal relaxation rate of tumors): high contrast effect; tumor/muscle ratio (T/M ratio) of the relaxation rate ([5]; within 24 hours after administration): 1.36; change in body weight after Gd-NCT [6]: without body weight loss; diameter [8]: about 6 nm |
| BZA100-PEGA70-CEA30(DOTA)17 [TP6] | 0.53 | higher | form particles in aqueous solution | more rapid | – | – | – | accumulated more abundantly in the liver, spleen and kidneys | negative | zeta potential [9]: -37 mV |
| PEGA124-CEA10(DOTA)4 [PEGA-Gd4] | – | higher | no peak could be confirmed | equivalent | – | – | – | – | negative | R1 value ([5]; during the 24 hours, compared with SMDC-Gd4): consistently lower than SMDC-Gd4 |
